US20070077603A1 (published 2007)

What was measured:
Test in all cases: ligand blot from native 4-15% PAGE of Sephacryl-300 fractions of hirudin-plasma
[1] = biological target: T1, monomeric protein S in plasma (human, UniProt P07225 42-676)
T1 construct: mature; also called monomers
T1 sequence (looked up): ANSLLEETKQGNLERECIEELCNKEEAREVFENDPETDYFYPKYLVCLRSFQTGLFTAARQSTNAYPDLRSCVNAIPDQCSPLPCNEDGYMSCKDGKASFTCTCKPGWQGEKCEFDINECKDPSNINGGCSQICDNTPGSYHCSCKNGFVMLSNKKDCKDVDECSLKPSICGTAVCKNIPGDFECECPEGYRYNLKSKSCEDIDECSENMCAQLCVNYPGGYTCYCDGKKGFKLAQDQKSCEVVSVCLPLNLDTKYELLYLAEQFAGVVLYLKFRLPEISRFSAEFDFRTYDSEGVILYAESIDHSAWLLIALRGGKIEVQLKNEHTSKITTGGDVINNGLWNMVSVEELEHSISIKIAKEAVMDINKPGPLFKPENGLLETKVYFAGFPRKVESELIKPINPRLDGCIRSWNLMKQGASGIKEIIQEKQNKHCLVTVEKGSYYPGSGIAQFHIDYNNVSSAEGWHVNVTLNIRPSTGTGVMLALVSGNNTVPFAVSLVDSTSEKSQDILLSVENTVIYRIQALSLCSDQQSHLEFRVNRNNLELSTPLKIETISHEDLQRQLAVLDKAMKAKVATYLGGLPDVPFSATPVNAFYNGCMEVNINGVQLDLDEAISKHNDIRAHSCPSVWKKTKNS
Experimental: (§1) Gel filtration - - - Purified protein S preparations or hirudin-plasma (200 μl ) were fractionated on a 1×30 cm Superose-6 HR column using Fast Performance Liquid Chromatography (Amersham-Pharmacia, Piscattaway, N.J.) at a flow rate of 0.4 ml/min in Hepes-buffered saline (HBS). Hirudin and citrated plasmas (300 ul) were each mixed with 700 μl of 50 mM benzamidine and fractionated on a 1.6×60 cm Sephacryl-300 column at a flow rate of 0.4 ml/min in Tris-buffered saline. Fractions were analyzed for protein S antigen by ELISA, for protein S multimers by native PAGE, and for PS-direct. ELISAs were also performed on the fractions for FV, FX, and C4BP antigens
(§2) To further separate protein S forms in plasma, hirudin-plasma and citrated plasma were each subjected to gel filtration on a larger column (FIGS. 8B and 8C). […] Biotin-FXa could ligand blot (Heeb, et al. Protein S binds to and inhibits factor Xa. Proc Natl Acad Sci USA. 1994;91:2728-2732) to PS-C4BP, multimeric and monomeric protein S in fractionated hirudin plasma (FIG. 8C).

[2] = biological target: T2, multimeric protein S in plasma (human, UniProt P07225 42-676)
T2 construct: mature; also called protein S multimers in plasma; putative protein S multimers
T2 sequence (looked up): T1 sequence (looked up)
Experimental: as §1, §2

[3] = biological target: T3, Protein S-C4b-binding protein complex in fractionated hirudin-plasma (human, UniProt P07225 42-676; P04003 49-597; P20851 18-252)
T3 construct: Native complex from plasma; also called PS-C4BP; Cx
T3 sequence (looked up) 1: T1 sequence (looked up)
T3 sequence (looked up) 2: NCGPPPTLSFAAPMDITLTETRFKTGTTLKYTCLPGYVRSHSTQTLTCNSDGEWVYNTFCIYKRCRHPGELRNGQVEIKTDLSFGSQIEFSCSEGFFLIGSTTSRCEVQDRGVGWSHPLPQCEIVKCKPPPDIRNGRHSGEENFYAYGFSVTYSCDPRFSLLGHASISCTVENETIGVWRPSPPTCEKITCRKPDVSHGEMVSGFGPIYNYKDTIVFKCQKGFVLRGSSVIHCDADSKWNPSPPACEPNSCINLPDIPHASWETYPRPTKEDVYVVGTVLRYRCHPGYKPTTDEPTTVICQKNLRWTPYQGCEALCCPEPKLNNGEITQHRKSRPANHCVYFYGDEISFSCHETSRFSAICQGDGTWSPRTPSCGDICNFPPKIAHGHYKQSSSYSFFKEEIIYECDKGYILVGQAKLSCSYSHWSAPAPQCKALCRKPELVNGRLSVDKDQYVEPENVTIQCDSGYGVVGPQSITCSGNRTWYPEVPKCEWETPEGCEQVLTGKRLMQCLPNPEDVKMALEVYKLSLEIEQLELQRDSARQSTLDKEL
T3 sequence (looked up) 3: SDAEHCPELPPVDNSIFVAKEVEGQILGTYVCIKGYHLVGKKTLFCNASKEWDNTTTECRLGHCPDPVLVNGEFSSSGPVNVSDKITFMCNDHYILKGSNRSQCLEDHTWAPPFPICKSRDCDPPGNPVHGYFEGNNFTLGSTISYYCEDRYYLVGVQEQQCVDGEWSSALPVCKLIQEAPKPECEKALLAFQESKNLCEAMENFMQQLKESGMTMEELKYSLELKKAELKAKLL
Experimental: as §1, §2

Measured: binding result

B1: Biotin-FX (other)
chain 1: ANSFLEEMKKGHLERECMEETCSYEEAREVFEDSDKTNEFWNKYKDGDQCETSPCQNQGKCKDGLGEYTCTCLEGFEGKNCELFTRKLCSLDNGDCDQFCHEEQNSVVCSCARGYTLADNGKACIPTGPYPCGKQTLER
chain 2: SVAQATSSSGEAPDSITWKPYDAADLDPTENPFDLLDFNQTQPERGDNNLTRIVGGQECKDGECPWQALLINEENEGFCGGTILSEFYILTAAHCLYQAKRFKVRVGDRNTEQEEGGEAVHEVEVVIKHNRFTKETYDFDIAVLRLKTPITFRMNVAPACLPERDWAESTLMTQKTGIVSGFGRTHEKGRQSTRLKMLEVPYVDRNSCKLSSSFIITQNMFCAGYDTKQEDACQGDSGGPHVTRFKDTYFVTGIVSWGEGCARKGKYGIYTKVTAFLKWIDRSMKTRGLPKAKSHAPEVITSSPLK
modifications: biotinylated (sites not given)
no binding: all assays above
